Data published in paper PMC10397247.
Where two headings read alike, the source gives them in different places.

Columns and labels:
Experiment in all cases: two-hybrid library CCmax;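 also: natural log of median RNA to DNA barcode read ratio; higher means stronger binding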
4H3697-AA = target: T1, 4H3697-AA; details: mean of both orientations
T1 chain: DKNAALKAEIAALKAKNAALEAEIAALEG

4H458-AA = target: T2, 4H458-AA; details: mean of both orientations
T2 chain: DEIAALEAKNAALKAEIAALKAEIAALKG

4H2473-AA = target: T3, 4H2473-AA; details: mean of both orientations
T3 chain: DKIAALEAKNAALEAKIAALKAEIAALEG

4H2438-AA = target: T4, 4H2438-AA; details: mean of both orientations
T4 chain: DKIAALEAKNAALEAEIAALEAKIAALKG

4H930-AA = target: T5, 4H930-AA; details: mean of both orientations
T5 chain: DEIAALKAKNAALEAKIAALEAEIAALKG

4H3410-AA = target: T6, 4H3410-AA; details: mean of both orientations
T6 chain: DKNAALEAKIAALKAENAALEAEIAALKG

4H2698-AA = target: T7, 4H2698-AA
T7 chain: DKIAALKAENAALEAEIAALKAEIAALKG

4H3381-AA = target: T8, 4H3381-AA; details: mean of both orientations
T8 chain: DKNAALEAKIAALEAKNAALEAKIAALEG

4H3120-AA = target: T9, 4H3120-AA; details: mean of both orientations
T9 chain: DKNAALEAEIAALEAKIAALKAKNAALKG

4H310-AA = target: T10, 4H310-AA
T10 chain: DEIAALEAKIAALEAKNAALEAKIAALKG

4H3016-AA = target: T11, 4H3016-AA; details: mean of both orientations
T11 chain: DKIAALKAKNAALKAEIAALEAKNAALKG

4H_GCN4 = target: 4H_GCN4
4H3865-AA = target: T12, 4H3865-AA; details: mean of both orientations
T12 chain: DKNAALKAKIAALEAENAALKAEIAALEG

4H_APH = target: T13, 4H_APH
T13 chain: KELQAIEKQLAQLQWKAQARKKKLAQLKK

4H2330-AA = target: T14, 4H2330-AA; details: mean of both orientations
T14 chain: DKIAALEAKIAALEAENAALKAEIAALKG

GCN2_T = details: mean of both orientations
4H536-AA = target: T15, 4H536-AA; details: mean of both orientations
T15 chain: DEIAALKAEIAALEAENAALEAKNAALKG

4H2389-AA = target: T16, 4H2389-AA; details: mean of both orientations
T16 chain: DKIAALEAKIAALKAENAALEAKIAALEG

4H3395-AA = target: T17, 4H3395-AA; details: mean of both orientations
T17 chain: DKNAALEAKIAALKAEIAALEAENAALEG

4H384-AA = target: T18, 4H384-AA; details: mean of both orientations
T18 chain: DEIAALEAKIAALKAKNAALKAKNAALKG

4H2274-AA = target: T19, 4H2274-AA; details: mean of both orientations
T19 chain: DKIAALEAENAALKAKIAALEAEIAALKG

4H3009-AA = target: T20, 4H3009-AA; details: mean of both orientations
T20 chain: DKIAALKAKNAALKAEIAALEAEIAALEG

4H3130-AA = target: T21, 4H3130-AA; details: mean of both orientations
T21 chain: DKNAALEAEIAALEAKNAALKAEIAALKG

4H94-AA = target: T22, 4H94-AA; details: mean of both orientations
T22 chain: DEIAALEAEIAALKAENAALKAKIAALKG

4H710-AA = target: T23, 4H710-AA; details: mean of both orientations
T23 chain: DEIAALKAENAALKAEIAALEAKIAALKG

4H3753-AA = target: T24, 4H3753-AA; details: mean of both orientations
T24 chain: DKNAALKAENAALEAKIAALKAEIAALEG

4H_BCR = target: T25, 4H_BCR; details: mean of both orientations
T25 chain: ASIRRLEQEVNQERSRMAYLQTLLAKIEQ

4H570-AA = target: T26, 4H570-AA; details: mean of both orientations
T26 chain: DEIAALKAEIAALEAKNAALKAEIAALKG

4H2649-AA = target: T27, 4H2649-AA; details: mean of both orientations
T27 chain: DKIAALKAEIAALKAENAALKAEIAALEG

4H797-AA = target: T28, 4H797-AA; details: mean of both orientations
T28 chain: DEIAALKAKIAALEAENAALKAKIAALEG

4H2253-AA = target: T29, 4H2253-AA
T29 chain: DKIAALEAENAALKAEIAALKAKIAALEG

4H2725-AA = target: T30, 4H2725-AA; details: mean of both orientations
T30 chain: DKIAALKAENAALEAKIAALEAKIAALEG

4H3590-AA = target: T31, 4H3590-AA
T31 chain: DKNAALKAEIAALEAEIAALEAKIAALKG

4H891-AA = target: T32, 4H891-AA; details: mean of both orientations
T32 chain: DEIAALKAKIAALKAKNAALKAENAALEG

4H909-AA = target: T33, 4H909-AA; details: mean of both orientations
T33 chain: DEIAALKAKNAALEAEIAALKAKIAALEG

4H2774-AA = target: T34, 4H2774-AA; details: mean of both orientations
T34 chain: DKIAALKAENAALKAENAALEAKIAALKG

4H249-AA = target: T35, 4H249-AA; details: mean of both orientations
T35 chain: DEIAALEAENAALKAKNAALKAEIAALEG

4H982-AA = target: T36, 4H982-AA; details: mean of both orientations
T36 chain: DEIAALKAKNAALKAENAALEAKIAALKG

4H2611-AA = target: T37, 4H2611-AA; details: mean of both orientations
T37 chain: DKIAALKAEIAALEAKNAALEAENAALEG

4H717-AA = target: T38, 4H717-AA; details: mean of both orientations
T38 chain: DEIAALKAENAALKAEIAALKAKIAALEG

4H3606-AA = target: T39, 4H3606-AA; details: mean of both orientations
T39 chain: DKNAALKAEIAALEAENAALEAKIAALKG

4H3718-AA = target: T40, 4H3718-AA; details: mean of both orientations
T40 chain: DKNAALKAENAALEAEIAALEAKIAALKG

4H697-AA = target: T41, 4H697-AA; details: mean of both orientations
T41 chain: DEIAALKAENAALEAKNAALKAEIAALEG

Sequence of 4H_GCN4 (chain, as listed by the source): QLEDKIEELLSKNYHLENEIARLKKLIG

| interaction score (4H3697-AA) | interaction score (4H458-AA) | interaction score (4H2473-AA) | interaction score (4H2438-AA) | interaction score (4H930-AA) | interaction score (4H3410-AA) | interaction score (4H3381-AA) | interaction score (4H3120-AA) | interaction score (4H3016-AA) | interaction score (4H3865-AA) | interaction score (4H2330-AA) | interaction score (4H536-AA) | interaction score (4H2389-AA) | interaction score (4H3395-AA) | interaction score (4H384-AA) | interaction score (4H2274-AA) | interaction score (4H3009-AA) | interaction score (4H3130-AA) | interaction score (4H94-AA) | interaction score (4H797-AA) | other results | Binder |
| --- | --- | --- | --- | --- | --- | --- | --- | --- | --- | --- | --- | --- | --- | --- | --- | --- | --- | --- | --- | --- | --- |
| -0.69 | -0.706 | -0.93 | 1.55 | -1.18 | -0.247 | -1.28 | 0.706 | -0.959 | -1.52 | -1.41 | 1.04 | -1.15 | 0.689 | -0.727 | -0.953 | 1.33 | -0.837 | -0.994 | -1.08 | interaction score (4H2698-AA; mean of both orientations): 0.136; interaction score (4H310-AA; mean of both orientations): -0.553; interaction score (4H_GCN4): -1.45; interaction score (4H_APH; mean of both orientations): -1.13; interaction score (GCN2_T): -1.2; interaction score (4H710-AA): -0.564; interaction score (4H3753-AA): -0.82; interaction score (4H_BCR): -1.56; interaction score (4H570-AA): -0.556; interaction score (4H2649-AA): -1.29; interaction score (4H2253-AA; mean of both orientations): -1.44; interaction score (4H2725-AA): 0.284; interaction score (4H3590-AA; mean of both orientations): 2.4; interaction score (4H891-AA): -1.56; interaction score (4H909-AA): -1.36 | DENAALEAKIAALKAKIAALKAEIAALEG [4H1385-AA] |
| -1.65 | 0.0604 | -1.02 | -0.259 | -1.04 | -0.76 | -1.4 | -1.77 | -0.709 | -1.13 | -1.14 | -1.37 | -1.29 | -1.22 |  | -0.65 | 0.841 | -1.14 | -1.54 | -1.07 | interaction score (4H2698-AA; mean of both orientations): 0.72; interaction score (4H2774-AA): -0.645; interaction score (4H310-AA): -0.688; interaction score (4H_GCN4): -1.12; interaction score (4H_APH): -1.1; interaction score (GCN2_T): -1.56; interaction score (4H710-AA): 0.741; interaction score (4H3753-AA): -1.13; interaction score (4H_BCR): -1.47; interaction score (4H570-AA): -1.41; interaction score (4H249-AA): -1.56; interaction score (4H2649-AA): -1.27; interaction score (4H2253-AA): 2.28; interaction score (4H2725-AA): -0.468; interaction score (4H3590-AA): -1.09; interaction score (4H891-AA): -1.7; interaction score (4H909-AA): -0.788 | DKIAALEAENAALKAEIAALKAKIAALEG [4H2253-AA] |
| -1.83 |  |  |  |  |  |  |  |  | -1.31 |  |  |  |  | -1.55 |  |  |  |  | -0.965 | interaction score (4H982-AA): -1.6; interaction score (4H2611-AA): -1.56; interaction score (4H717-AA): -1.01; interaction score (4H3606-AA): -0.353; interaction score (4H3718-AA): -1.65; interaction score (4H697-AA): -1.65 | DENAALKAKIAALEAKNAALEAKIAALEG [4H1845-AA] |
| -0.767 | -0.711 | -1.21 | 0.734 | -1.29 | -0.741 | -1.57 | -1.42 | 1.66 | -0.476 | -2.02 | -1.32 | -1.07 | -1.24 | -1.36 | -1.17 | 2.13 | 0.164 | -1.72 | -1.36 | interaction score (4H2698-AA): -0.616; interaction score (4H310-AA; mean of both orientations): -1.66; interaction score (4H710-AA): 0.905; interaction score (4H3753-AA): -1.25; interaction score (4H570-AA): -0.493; interaction score (4H2649-AA): -0.999; interaction score (4H2253-AA; mean of both orientations): -1.44; interaction score (4H2725-AA): -1.12; interaction score (4H3590-AA; mean of both orientations): -0.733; interaction score (4H891-AA): -0.295; interaction score (4H909-AA): -1.12 | DEIAALEAENAALEAKIAALKAENAALEG [4H171-AA] |
